Measured values as given in patent US7807153 (Genentech, dated 2010).

Molecular target: T1, DR4 expressed in transfected CHO cells (UniProt O00220 24-468, limits assumed)
T1 construct: whole, on cells; also called DR4-transfected CHO cells; DR4-transfected cells
Test: immunohistochemistry on sections of transfected CHO cells
Experimental: CHO cells were transfected with vector alone or vector containing the gene for Apo-2 or DR4. The transfected cells were removed from culture plates, pelleted, and washed twice with PBS. The pellets were then resuspended in O.C.T. (Fisher), flash frozen in isopentain and LN_2, and later sectioned using standard protocols. Staining of the sectioned cells was performed using a Vectastain Elite ABC kit. […] The secondary antibody employed was either a biotinylated anti-c-myc 9E10 antibody or anti-Penta His antibody (Qiagen) followed by biotinylated anti-mouse IgG.

B1: single chain antibody (scFv) fragment 16E2 (scFv)
scFv: EVQLVQSGGGVERPGGSLRLSCAASGFTFDDYGMSWVRQAPGKGLEWVSGINWNGGSTGYADSVKGRVTISRDNAKNSLYLQMNSLRAEDTAVYYCAKILGAGRGWYFDLWGKGTTVTVSSGGGGSGGGGSGGGGSSELTQDPAVSVALGQTVRITCQGDSLRSYYASWYQQKPGQAPVLVIYGKNNRPSGIPDRFSGSSSGNTASLTITGAQAEDEADYYCNSRDSSGNHVVFGGGTKLTVLGAAAHHHHHHGAAEQKLISEEDLNGAA
notes: Purified by IMAC from E. coli; also called 16E2 antibody; anti-Apo-2 antibody 16E2
binding result: no binding
